Measurements reported in paper PMC8902617, “A lysine-rich cluster in the N-BAR domain of ARF GTPase-activating protein ASAP1 is necessary for binding and bundling actin filaments” (The Journal of Biological Chemistry, 2022).

B1: ASAP1 BAR-PH (residues 1-431), His6-tagged, wild type (domain or fragment)
chain: not shown
notes: ASAP1, BAR-PH tandem, residues 1-431; also called ASAP1-BAR-PH-His6; WT BAR-PH; source: E. coli LOBSTR (DE3) RIL or BL21 (DE3), purified (Ni-NTA or HisTrap; buffer exchange or Sephacryl S100)
B2: [Q72A, Y82A, N83A] ASAP1-BAR-PH-His6 (domain or fragment)
chain: not shown
notes: ASAP1, BAR-PH tandem, residues 1-431; Mutant of m2; the text prints [Q72A, Y82A, N83A] throughout; also called cluster 1b Ala triple mutant; source: E. coli LOBSTR (DE3) RIL or BL21 (DE3), purified (Ni-NTA or HisTrap; buffer exchange or Sephacryl S100)
B3: [Q72E, Y82F, N83D] ASAP1-BAR-PH-His6 (domain or fragment)
chain: not shown
notes: ASAP1, BAR-PH tandem, residues 1-431; Mutant of m2; source: E. coli LOBSTR (DE3) RIL or BL21 (DE3), purified (Ni-NTA or HisTrap; buffer exchange or Sephacryl S100)
B4: [K229A, K231A, K232A] ASAP1-BAR-PH-His6 (domain or fragment)
chain: not shown
notes: as for B3
B5: [K283A, K284A] ASAP1-BAR-PH-His6 (domain or fragment)
chain: not shown
notes: as for B3
B6: Q72E ASAP1-BAR-PH-His6 single mutant (domain or fragment)
chain: not shown
notes: as for B3
B7: [K283E, K284E] ASAP1-BAR-PH-His6 (domain or fragment)
chain: not shown
notes: as for B3
B8: ASAP3 BAR-PH (aa 1-394) (domain or fragment)
chain: MPEQFSVAEFLAVTAEDLSSPAGAAAFAAKMPRYRGAALAREEILEGDQAILQRIKKAVRAIHSSGLGHVENEEQYREAVESLGNSHLSQNSHELSTGFLNLAVFTREVAALFKNLIQNLNNIVSFPLDSLMKGQLRDGRQDSKKQLEKAWKDYEAKMAKLEKERDRARVTGGIPGEVAQDMQRERRIFQLHMCEYLLKAGESQMKQGPDFLQSLIKFFHAQHNFFQDGWKAAQSLFPFIEKLAASVHALHQAQEDELQKLTQLRDSLRGTLQLESREEHLSRKNSGCGYSIHQHQGNKQFGTEKVGFLYKKSDGIRRVWQKRKCGVKYGCLTISHSTINRPPVKLTLLTCQVRPNPEEKKCFDLVTHNRTYHFQAEDEHECEAWVSVLQNSKD
notes: ASAP3, BAR-PH tandem, residues 1-394; source: E. coli LOBSTR (DE3) RIL or BL21 (DE3), purified (Ni-NTA or HisTrap; buffer exchange or Sephacryl S100)
B9: ASAP2 BAR-PH (aa 1-397) (domain or fragment)
chain: not shown
notes: ASAP2, BAR-PH tandem, residues 1-397; source: E. coli LOBSTR (DE3) RIL or BL21 (DE3), purified (Ni-NTA or HisTrap; buffer exchange or Sephacryl S100)

molecular target: filamentous actin (rabbit skeletal muscle actin) (rabbit, UniProt P68135 1-377); test: co-sedimentation; high-speed actin cosedimentation: test protein (2 μM) with F-actin (0-25 μM) in F-actin buffer (5 mM Hepes pH 8.0, 100 mM KCl, 2 mM MgCl2, 0.2 mM CaCl2, 1 mM ATP, 1 mM DTT) for 30 min, 150,000g for 90 min at 24 °C and/or 4 °C; supernatant and pellet on SDS-PAGE, % test protein in the pellet (ACAP1 also by anti-His6 immunoblot); conditions: both partners purified

| EC50 [nM] | binding result | Binder |
| --- | --- | --- |
| ~1000 | – | B1 |
| – | binds | B2 |
| – | binds | B3 |
| – | binds | B4 |
| – | binds | B5 |
| – | binds | B6 |
| – | binds | B7 |
| ~1000 | – | B8 |
| ~4000 | – | B9 |
